Experiment [1] deals with T1, Recombinant human IL-23 receptor (IL-23R) extracellular domain (ECD) protein (human, UniProt Q5VWK5 24-355).
T1 construct: also called human IL-23R ECD; hu IL-23R ECD
T1 sequence: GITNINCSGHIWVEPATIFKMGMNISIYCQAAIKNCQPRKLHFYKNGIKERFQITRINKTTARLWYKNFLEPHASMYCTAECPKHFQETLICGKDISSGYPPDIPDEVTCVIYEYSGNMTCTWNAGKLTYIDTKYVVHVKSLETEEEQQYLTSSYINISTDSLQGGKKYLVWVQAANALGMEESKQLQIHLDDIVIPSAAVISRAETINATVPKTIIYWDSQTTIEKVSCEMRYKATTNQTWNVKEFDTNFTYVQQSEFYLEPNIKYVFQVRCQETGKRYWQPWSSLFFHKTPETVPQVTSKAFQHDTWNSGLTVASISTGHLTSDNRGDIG
Briefly: SPR Biacore 8K, supernatant, analysis 2. Summed up:
(§1)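 mAbs captured (~150 RU) on Biacore 8K; human or rat IL-23R ECD injected at 0.8–500 nM (5-fold series) at 25 °C in HBS-P+ with 100 μg/ml BSA. Association 3 min at 50 μL/min, dissociation 30 min. Ka, Kd and KD from Langmuir 1:1 fit.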
(In general: In SPR one partner is held on a chip, and binding of the other changes the refractive index at the surface.)

Experiment [2] has as its target T2, rat IL-23R extracellular domain (ECD) protein (rat).
T2 construct: also called rat IL-23R ECD; F1LX96 amino acids 24-354
T2 chain: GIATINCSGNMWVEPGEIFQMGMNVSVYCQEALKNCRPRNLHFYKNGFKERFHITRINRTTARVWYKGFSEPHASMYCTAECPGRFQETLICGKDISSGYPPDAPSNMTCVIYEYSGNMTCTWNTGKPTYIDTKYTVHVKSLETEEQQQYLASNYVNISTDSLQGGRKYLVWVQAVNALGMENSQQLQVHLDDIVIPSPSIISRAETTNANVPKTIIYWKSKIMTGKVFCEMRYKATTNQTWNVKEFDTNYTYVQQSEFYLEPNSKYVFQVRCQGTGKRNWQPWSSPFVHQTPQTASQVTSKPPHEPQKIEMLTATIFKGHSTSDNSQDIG
Put plainly: SPR Biacore 8K, supernatant. In short, it runs like this:
as §1

In experiment [3] the target is T1, Recombinant human IL-23 receptor …. Put plainly: SPR Biacore 8K, supernatant, analysis 1. In short, it runs like this:
as §1

The target in experiment [4] is T3, human IL-23R on the cell surface (human, UniProt Q5VWK5 24-629).
T3 construct: whole, on cells; also called cell surface human IL-23R; IL-23R on iLite cells, HEK-IL-23R cells and primary human immune cells
T3 sequence (looked up): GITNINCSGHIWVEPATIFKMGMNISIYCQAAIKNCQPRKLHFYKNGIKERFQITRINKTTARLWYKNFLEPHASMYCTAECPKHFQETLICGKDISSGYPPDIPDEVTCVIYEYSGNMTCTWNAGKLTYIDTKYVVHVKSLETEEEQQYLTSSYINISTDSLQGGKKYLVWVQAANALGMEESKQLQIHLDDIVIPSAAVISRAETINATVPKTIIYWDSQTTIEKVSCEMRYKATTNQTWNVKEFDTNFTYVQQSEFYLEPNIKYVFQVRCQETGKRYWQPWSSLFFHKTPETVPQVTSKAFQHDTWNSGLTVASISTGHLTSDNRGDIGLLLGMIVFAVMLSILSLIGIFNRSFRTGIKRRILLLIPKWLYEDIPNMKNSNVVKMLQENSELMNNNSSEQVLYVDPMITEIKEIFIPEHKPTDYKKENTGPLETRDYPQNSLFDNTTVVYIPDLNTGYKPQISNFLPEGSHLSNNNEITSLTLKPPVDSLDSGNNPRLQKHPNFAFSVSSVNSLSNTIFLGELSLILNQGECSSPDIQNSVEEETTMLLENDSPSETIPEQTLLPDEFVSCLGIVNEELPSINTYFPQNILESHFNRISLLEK
Put plainly: flow cytometry, HEK-IL-23R cells (Expt E). Background: Flow cytometry measures light scatter and fluorescence of single cells or particles in a stream.

B1: I23RB165 (antibody, mouse IgG2a, kappa, V domains shown)
VH: EVQLQQSGAELVRPGASVKLSCTASGFNIKDSLMHWVKQRPEQGLEWIGWIDPEDGKTKYAPKFQDKATITADTSSNTAYLQLSSLTSEDTAIYYCARREVLDYFDYWGQGTTLTVSS
VL: DIVMTQSPASLAVSLGQRATISCRASKSVSTSGYSYMHWYQQKPGQPPKLLIYLASNLESGVPARFSGSGSGTDFTLNIHPVEEEDAATYYCQHSRELPLTFGAGTKLEMKR
notes: mouse immunization; mouse IgG2a/kappa
As usually defined, the Kd is a measure of binding affinity in units of concentration. For orientation: koff means the rate constant with which the complex falls apart. For orientation: kon means the rate constant with which the complex forms. Usually EC50 stands for the concentration needed to bring the measured effect to its halfway point. A low value points to an effect from little substance. Regarding B1, in experiment [1], the Kd is 29.1 nM, the koff turned out to be 0.00941 s⁻¹ and the kon is 324000 M⁻¹ s⁻¹. In experiment [2], the binding result was “no binding (tested: 500 nM)”. Besides, in experiment [3], the Kd is 18.1 nM, the koff is 0.00806 s⁻¹ and the kon came out at 446000 M⁻¹ s⁻¹. In experiment [4], this molecule yielded an EC50 not above 9.7 nM.

B2: I23RB173 (antibody, mouse IgG2a, kappa, V domains shown)
VH: DVQLQESGPGLVKPSQSLSLTCSVTGYSITSGYYWNWIRQFPGNKLEWMGYISYDGGNNYNPSLKNRISITRDTSKNQFFLKLNSVTTEDTATYYCARDAGLLPYYAMDYWGQGTTLTVSS
VL: DIKMTQSPAIMSASPGEKVTITCSASSSVSYMHWFQQKPGTSPKLWIYSTSNLASGVPARFSGSGSGTSYSLTISRMEAEDAATYYCQQRSSYPLTFGDGTKLEMKR
notes: as for B1
On to B2, for which, in experiment [1], the Kd was 36.1 nM, the off-rate constant (koff) came to 0.0103 s⁻¹ and the association rate constant (kon) was found to be 285000 M⁻¹ s⁻¹. Further, in experiment [2], the binding result is recorded as “no binding (tested: 500 nM)”. Further, in experiment [3], the equilibrium dissociation constant (Kd) was found to be 25.7 nM, the off-rate constant (koff) was 0.00759 s⁻¹ and the kon worked out at 296000 M⁻¹ s⁻¹. The molecule also displayed a concentration for a half-maximal effect (EC50) in experiment [4] not above 9.7 nM.

These data come from US20250179196A1 (Janssen / Centocor, published 2025).
